Measurements taken from patent publication US6528270.

Biological target: BCR-ABL kinase available in the cell (the BCR-ABL expressing cells)
Assay: 35S-methionine labelling, immunoprecipitation with anti-ABL or anti-GRB-2 antibodies

“GRB-2 (form and cells not named in the sentence) (from UniProt P62993 1-217)” gave a percent of the BCR-ABL kinase available in the cell complexed with GRB-2 of 50 to 90%.
